The test has as its system HAB1. The test is described as follows: Yeast two hybrid of pBD-PYR1 site saturation mutants with pACT-HAB1 on 10 μM ABA, β-galactosidase staining. It counts as cell-based, Arabidopsis. Particulars: S. cerevisiae Y190, 10 μM ABA; dead = lack of visible staining in comparison to wild type control. More on the design: key: x: Mutations in PYR1 that disrupt ABA-induced binding to PYR1 to HAB1. The source says: To systematically identify mutations in PYR1 that disrupt its binding to HAB1, we utilized a collection of saturating mutations that contain all possible single amino acid substitutions in 24 conserved interface residues involved in binding HAB1, which was previously constructed for the purpose of engineering constitutively active ABA receptor variants (Mosquna et al., 2011). The interface residues previously mutagenized in this collection are the following: H60, F61, I62, K63, I84, S85, G86, L87, P88, A89, H115, R116, L117, P148, G150, N151, D154, D155, T156, M158, F159, T162, L166, K170. This set was made by mutagenizing a pBD-PYR1 template that encodes a GAL4-DNA binding domain fusion to PYR1, which can be used to assess receptor-HAB1 binding in S. cerevisiae strains co-transformed with pACT-HAB1, which expresses a GAL4 activation domain fusion to HAB1. Mutant pBD-PYR1 clones from the collection are maintained in S. cerevisiae strain Y190 co-transformed with pACT-HAB1. The test strains were spotted onto agar plates containing synthetic dextrose dropout media lacking leucine and tryptophan [SD (-Leu, -Trp)] medium supplemented with 10 μM ABA. After incubating the test plates at 30° C. for two days, colonies were chloroform lysed and stained to reveal […] expression levels and “dead” mutants were defined by lack of visible staining in comparison to a wild type control. This effort defined 237 mutations that disrupt ABA-induced binding of PYR1 to HAB1 (Table 1). Premade yeast drop out supplements (Clontech) were utilized in this and other examples for media preparation, amino acids and other standard chemicals were purchased from Sigma-Aldrich (USA). The naturally occurring (+)-ABA isomer was used in all experiments and purchased from Biosynth Ag (Switzerland).

B1: G86A: PYR1 mutant (protein, UniProt O49686 1-191, looked up, variant G86A)
Abscisic acid receptor PYR1: MPSELTPEERSELKNSIAEFHTYQLDPGSCSSLHAQRIHAPPELVWSIVRRFDKPQTYKHFIKSCSVEQNFEMRVGCTRDVIVISALPANTSTERLDILDDERRVTGFSIIGGEHRLTNYKSVTTVHRFEKENRIWTVVLESYVVDMPEGNSEDDTRMFADTVVKLNLQKLATVAEAMARNSGDGSGSQVT
B1: the “Mutations in PYR1 that disrupt ABA-induced binding to PYR1 to HAB1” value (from here on “Mutations”) is “x”.

B2: G86Q: PYR1 mutant (protein, UniProt O49686 1-191, looked up, variant G86Q)
Abscisic acid receptor PYR1: MPSELTPEERSELKNSIAEFHTYQLDPGSCSSLHAQRIHAPPELVWSIVRRFDKPQTYKHFIKSCSVEQNFEMRVGCTRDVIVISQLPANTSTERLDILDDERRVTGFSIIGGEHRLTNYKSVTTVHRFEKENRIWTVVLESYVVDMPEGNSEDDTRMFADTVVKLNLQKLATVAEAMARNSGDGSGSQVT
Take B2: the “Mutations” value is “x”.

B3: G86S: PYR1 mutant (protein, UniProt O49686 1-191, looked up, variant G86S)
Abscisic acid receptor PYR1: MPSELTPEERSELKNSIAEFHTYQLDPGSCSSLHAQRIHAPPELVWSIVRRFDKPQTYKHFIKSCSVEQNFEMRVGCTRDVIVISSLPANTSTERLDILDDERRVTGFSIIGGEHRLTNYKSVTTVHRFEKENRIWTVVLESYVVDMPEGNSEDDTRMFADTVVKLNLQKLATVAEAMARNSGDGSGSQVT
With B3, the “Mutations” value is listed as “x”.

B4: G86L: PYR1 mutant (protein, UniProt O49686 1-191, looked up, variant G86L)
Abscisic acid receptor PYR1: MPSELTPEERSELKNSIAEFHTYQLDPGSCSSLHAQRIHAPPELVWSIVRRFDKPQTYKHFIKSCSVEQNFEMRVGCTRDVIVISLLPANTSTERLDILDDERRVTGFSIIGGEHRLTNYKSVTTVHRFEKENRIWTVVLESYVVDMPEGNSEDDTRMFADTVVKLNLQKLATVAEAMARNSGDGSGSQVT
As for B4, the “Mutations” value is “x”.

B5: G86R: PYR1 mutant (protein, UniProt O49686 1-191, looked up, variant G86R)
Abscisic acid receptor PYR1: MPSELTPEERSELKNSIAEFHTYQLDPGSCSSLHAQRIHAPPELVWSIVRRFDKPQTYKHFIKSCSVEQNFEMRVGCTRDVIVISRLPANTSTERLDILDDERRVTGFSIIGGEHRLTNYKSVTTVHRFEKENRIWTVVLESYVVDMPEGNSEDDTRMFADTVVKLNLQKLATVAEAMARNSGDGSGSQVT
As to B5, the “Mutations” value is given as “x”.

B6: G86D: PYR1 mutant (protein, UniProt O49686 1-191, looked up, variant G86D)
Abscisic acid receptor PYR1: MPSELTPEERSELKNSIAEFHTYQLDPGSCSSLHAQRIHAPPELVWSIVRRFDKPQTYKHFIKSCSVEQNFEMRVGCTRDVIVISDLPANTSTERLDILDDERRVTGFSIIGGEHRLTNYKSVTTVHRFEKENRIWTVVLESYVVDMPEGNSEDDTRMFADTVVKLNLQKLATVAEAMARNSGDGSGSQVT
For the molecule B6, the “Mutations” value is “x”.

B7: G86V: PYR1 mutant (protein, UniProt O49686 1-191, looked up, variant G86V)
Abscisic acid receptor PYR1: MPSELTPEERSELKNSIAEFHTYQLDPGSCSSLHAQRIHAPPELVWSIVRRFDKPQTYKHFIKSCSVEQNFEMRVGCTRDVIVISVLPANTSTERLDILDDERRVTGFSIIGGEHRLTNYKSVTTVHRFEKENRIWTVVLESYVVDMPEGNSEDDTRMFADTVVKLNLQKLATVAEAMARNSGDGSGSQVT
In the case of B7, the “Mutations” value is “x”.

B8: G86E: PYR1 mutant (protein, UniProt O49686 1-191, looked up, variant G86E)
Abscisic acid receptor PYR1: MPSELTPEERSELKNSIAEFHTYQLDPGSCSSLHAQRIHAPPELVWSIVRRFDKPQTYKHFIKSCSVEQNFEMRVGCTRDVIVISELPANTSTERLDILDDERRVTGFSIIGGEHRLTNYKSVTTVHRFEKENRIWTVVLESYVVDMPEGNSEDDTRMFADTVVKLNLQKLATVAEAMARNSGDGSGSQVT
In the case of B8, the “Mutations” value was “x”.

B9: G86W: PYR1 mutant (protein, UniProt O49686 1-191, looked up, variant G86W)
Abscisic acid receptor PYR1: MPSELTPEERSELKNSIAEFHTYQLDPGSCSSLHAQRIHAPPELVWSIVRRFDKPQTYKHFIKSCSVEQNFEMRVGCTRDVIVISWLPANTSTERLDILDDERRVTGFSIIGGEHRLTNYKSVTTVHRFEKENRIWTVVLESYVVDMPEGNSEDDTRMFADTVVKLNLQKLATVAEAMARNSGDGSGSQVT
For B9, the “Mutations” value is on record as “x”.

B10: G86Y: PYR1 mutant (protein, UniProt O49686 1-191, looked up, variant G86Y)
Abscisic acid receptor PYR1: MPSELTPEERSELKNSIAEFHTYQLDPGSCSSLHAQRIHAPPELVWSIVRRFDKPQTYKHFIKSCSVEQNFEMRVGCTRDVIVISYLPANTSTERLDILDDERRVTGFSIIGGEHRLTNYKSVTTVHRFEKENRIWTVVLESYVVDMPEGNSEDDTRMFADTVVKLNLQKLATVAEAMARNSGDGSGSQVT
Consider B10, for which the “Mutations” value is “x”.

B11: G86N: PYR1 mutant (protein, UniProt O49686 1-191, looked up, variant G86N)
Abscisic acid receptor PYR1: MPSELTPEERSELKNSIAEFHTYQLDPGSCSSLHAQRIHAPPELVWSIVRRFDKPQTYKHFIKSCSVEQNFEMRVGCTRDVIVISNLPANTSTERLDILDDERRVTGFSIIGGEHRLTNYKSVTTVHRFEKENRIWTVVLESYVVDMPEGNSEDDTRMFADTVVKLNLQKLATVAEAMARNSGDGSGSQVT
Consider B11, for which the “Mutations” value is listed as “x”.

B12: G86M: PYR1 mutant (protein, UniProt O49686 1-191, looked up, variant G86M)
Abscisic acid receptor PYR1: MPSELTPEERSELKNSIAEFHTYQLDPGSCSSLHAQRIHAPPELVWSIVRRFDKPQTYKHFIKSCSVEQNFEMRVGCTRDVIVISMLPANTSTERLDILDDERRVTGFSIIGGEHRLTNYKSVTTVHRFEKENRIWTVVLESYVVDMPEGNSEDDTRMFADTVVKLNLQKLATVAEAMARNSGDGSGSQVT
As for B12, the “Mutations” value was “x”.

B13: G86P: PYR1 mutant (protein, UniProt O49686 1-191, looked up, variant G86P)
Abscisic acid receptor PYR1: MPSELTPEERSELKNSIAEFHTYQLDPGSCSSLHAQRIHAPPELVWSIVRRFDKPQTYKHFIKSCSVEQNFEMRVGCTRDVIVISPLPANTSTERLDILDDERRVTGFSIIGGEHRLTNYKSVTTVHRFEKENRIWTVVLESYVVDMPEGNSEDDTRMFADTVVKLNLQKLATVAEAMARNSGDGSGSQVT
As to B13, the “Mutations” value was “x”.

B14: G86T: PYR1 mutant (protein, UniProt O49686 1-191, looked up, variant G86T)
Abscisic acid receptor PYR1: MPSELTPEERSELKNSIAEFHTYQLDPGSCSSLHAQRIHAPPELVWSIVRRFDKPQTYKHFIKSCSVEQNFEMRVGCTRDVIVISTLPANTSTERLDILDDERRVTGFSIIGGEHRLTNYKSVTTVHRFEKENRIWTVVLESYVVDMPEGNSEDDTRMFADTVVKLNLQKLATVAEAMARNSGDGSGSQVT
Take B14: the “Mutations” value is reported as “x”.

B15: G86C: PYR1 mutant (protein, UniProt O49686 1-191, looked up, variant G86C)
Abscisic acid receptor PYR1: MPSELTPEERSELKNSIAEFHTYQLDPGSCSSLHAQRIHAPPELVWSIVRRFDKPQTYKHFIKSCSVEQNFEMRVGCTRDVIVISCLPANTSTERLDILDDERRVTGFSIIGGEHRLTNYKSVTTVHRFEKENRIWTVVLESYVVDMPEGNSEDDTRMFADTVVKLNLQKLATVAEAMARNSGDGSGSQVT
For the molecule B15, the “Mutations” value is given as “x”.
